Measured values from patent US20170304412A1 (YEDA RESEARCH AND DEVELOPMENT, published 2017).
Changes are numbered by the printed parent chain. One block for each molecule: values may come before it.

How the values were obtained:
TACE catalytic domain = TACE catalytic domain (UniProt P78536 215-477, limits assumed); assay: cell-based or functional assay
MMP7 catalytic domain = target: T1, MMP7 catalytic domain (UniProt P09237 95-267); assay: cell-based or functional assay
T1 sequence (looked up): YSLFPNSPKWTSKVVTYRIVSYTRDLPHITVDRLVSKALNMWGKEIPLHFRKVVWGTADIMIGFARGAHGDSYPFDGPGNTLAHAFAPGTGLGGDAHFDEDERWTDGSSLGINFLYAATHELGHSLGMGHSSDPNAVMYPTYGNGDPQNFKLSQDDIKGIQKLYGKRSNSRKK

MMP9 catalytic domain = MMP9 catalytic domain (UniProt P14780 107-444, limits assumed); assay: cell-based or functional assay
Chain of MMP9 catalytic domain (P14780 107-444 limits assumed): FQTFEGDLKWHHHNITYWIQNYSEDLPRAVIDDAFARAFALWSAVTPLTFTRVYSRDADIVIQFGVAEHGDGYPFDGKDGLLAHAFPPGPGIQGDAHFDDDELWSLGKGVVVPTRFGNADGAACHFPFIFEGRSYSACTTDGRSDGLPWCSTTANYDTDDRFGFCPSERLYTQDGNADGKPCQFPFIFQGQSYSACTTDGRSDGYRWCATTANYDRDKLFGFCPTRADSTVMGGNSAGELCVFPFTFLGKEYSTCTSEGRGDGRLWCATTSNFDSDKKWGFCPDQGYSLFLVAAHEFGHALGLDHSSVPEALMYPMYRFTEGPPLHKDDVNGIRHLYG

[1] = target: T2, TACE pro-domain (wild type)
T2 chain: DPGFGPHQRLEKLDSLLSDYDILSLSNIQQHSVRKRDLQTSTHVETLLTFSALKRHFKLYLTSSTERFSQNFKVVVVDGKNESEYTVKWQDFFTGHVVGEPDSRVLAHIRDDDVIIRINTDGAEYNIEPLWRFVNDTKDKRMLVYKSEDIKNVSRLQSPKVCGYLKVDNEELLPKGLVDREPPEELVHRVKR

[2] = target: T3, TACE pro-domain R58A mutant
T3 chain: T2 chain with R36A

Chain of TACE catalytic domain (P78536 215-477 limits assumed): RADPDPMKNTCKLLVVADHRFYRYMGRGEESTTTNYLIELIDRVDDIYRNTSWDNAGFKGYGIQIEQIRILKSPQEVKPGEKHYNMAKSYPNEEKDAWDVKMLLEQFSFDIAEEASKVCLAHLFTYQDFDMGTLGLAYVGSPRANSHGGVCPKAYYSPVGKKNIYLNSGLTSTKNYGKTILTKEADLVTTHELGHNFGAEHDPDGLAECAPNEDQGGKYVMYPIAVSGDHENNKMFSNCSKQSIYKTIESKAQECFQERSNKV

IC50, proteolytic activity of TACE (TACE catalytic domain): 55 nM
Molecule: TACE pro-domain R58A mutant (from UniProt P78536 23-214)

IC50, catalytic activity on fluorogenic peptide (TACE catalytic domain): 119 nM
IC50, proteolytic activity of TACE (TACE catalytic domain): 23 nM
IC50, catalytic activity on fluorogenic peptide (MMP7 catalytic domain): 8790 nM
IC50 relative to the IC50 towards TACE (MMP7 catalytic domain): 80 fold
IC50, catalytic activity on fluorogenic peptide (MMP9 catalytic domain): 4480 nM
IC50 relative to the IC50 towards TACE (MMP9 catalytic domain): 40 fold
B1: TACE pro-domain (wild type) (other)
chain: T2 chain

B2: Furin (protein)
chain: DVYQEPTDPKFPQQWYLSGVTQRDLNVKAAWAQGYTGHGIVVSILDDGIEKNHPDLAGNYDPGASFDVNDQDPDPQPRYTQMNDNRHGTRCAGEVAAVANNGVCGVGVAYNARIGGVRMLDGEVTDAVEARSLGLNPNHIHIYSASWGPEDDGKTVDGPARLAEEAFFRGVSQGRGGLGSIFVWASGNGGREHDSCNCDGYTNSIYTLSISSATQFGNVPWYSEACSSTLATTYSSGNQNEKQIVTTDLRQKCTESHTGTSASAPLAAGIIALTLEANKNLTWRDMQHLVVQTSKPAHLNANDWATNGVGRKVSHSYGYGLLDAGAMVALAQNWTTVAPQRKCIIDILTEPKDIGKRLEVRKTVTACLGEPNHITRLEHAQARLTLSYNRRGDLAIHLVSPMGTRSTLLAARPHDYSADGFNDWAFMTTHSWDEDPSGEWVLEIENTSEANNYGTLTKFTLVLYGTA
cleavage by Furin (SDS-PAGE) [1]: Only pro-WT was processed by Furin generating a smaller fragment of ˜17kDa
cleavage by Furin (SDS-PAGE) [2]: pro-R58A mutant was not cleaved by Furin
